Results from PMC6908968 (Cell, 2019).

T1: thermolysin-cleaved EBOV GP on Jurkat-GP cells (cleaved GP) (Zaire ebolavirus, Makona (GP1 core …, strain))
T1 chain 1: not shown
T1 chain 2: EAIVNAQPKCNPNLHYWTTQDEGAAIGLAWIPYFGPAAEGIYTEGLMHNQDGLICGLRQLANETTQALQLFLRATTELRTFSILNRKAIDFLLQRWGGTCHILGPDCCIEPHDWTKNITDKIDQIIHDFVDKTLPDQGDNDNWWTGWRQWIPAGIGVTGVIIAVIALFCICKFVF

B1: 15.0.c846 (antibody, V domains shown)
VH: EVQLVESGGGLVQPGGSLRLSCAASGFTFSSYWMSWVRQAPGKGLEWVANIKQDGSEKYYVDSVKGRFTISRDNAKNSLYLQMNSLRAEDTAVYYCARTRDSSSSFYYYYYMDVWGKGTTVTVSS
VL: not shown
B2: 5.6.c2902 (antibody, V domains shown)
VH: QVQLQESGPGLVKPSQTLSLTCTVSGASINSRDSYWSWIRQPPGKGLEWIGYIYYSGSTYSNPSLKSRVTMSVDTSKNQISLQLSSVTAADTAVYYCARVEGNEILFSLWYFDIWGRGTPVSVSS
VL: QSVLTQPPSVSAAPGQKVTISCSGSSSNIGNNYVSWYQQLPGTAPKLLIYDNNKRPSGIPDRFSGSKSGTSATLGITGLQTGDEADYYCGSWDSSLSAGHWVFGGGTKLTVL
B3: 15.0.c942 (antibody, V domains shown)
VH: EVQLVESGGGVVRPGGSLRLTCAASGFIFENYGMSWVRQAPGKGLEWVSALNWNGVNTYYSDSVKGRFTISRDNAKNSLYLQMNSLSAEDTAFYYCAVHYYDSSGIYYLDDWGQGTLVTVSS
VL: QSVLTQPPSVSAAPGQKVSISCSGSSSNIGKNYVYWYQHVPGAAPKLLIYENDKRPSGIPDRFSGSKSGTSATLDITGLQTGDEAEYYCATWQSGLSAHVVFGGGTKLTVL
B4: 15.0.c778 (antibody, V domains shown)
VH: QVQLHESGPGVVKVSETLSLTCTLSGGSINGNSWSWIRQTAGKGLEWIGRVYTSGSPNYNPSLKSRLTMSIVTSKNQFSLTLRSVTAADTAIYYCARDFVVIDPTRVVDDYDAFDVWGRGTVVTVSS
VL: DIQLTQSPSILSASVGDRVTITCRASQSVSRYLAWYQQKPGNAPKLLIYKVSTLQSGVPSRFSGSASGTEFTLTINSLQPDDFATYYCHQYNGYLYTFGQGTKVDVK
B5: 15.0.c779 (antibody, V domains shown)
VH: EVQMVESGGGLVKPGGSLRLSCAASGFIFSNAWMSWVRQAPGKGLEWVGRIKGKTDGGTTDYAAPVKGRVTISRDDSKNTLFLQMNSLKTEDTAVYFCTADVLPAATRGVYYYYYYMDVWGKGTTVTVSS
VL: QSALTQPASVSGSPGQSITISCTGTSSDVGGYNYVSWYQQHPGKAPKLMIYDVSKRPSGVSNRFSGSKSGNTASLTISGLQAEDEADYYCCSYTGRSTVVFGGGTTLTVL
B6: 15.0.c780 (antibody, V domains shown)
VH: EVQLVESGGGLVKPGGSLRLSCAASGFTFSNAWMSWVRQAPGKGLEWVGRIKGKTDGGTTDYAAPVRGRFTISRDDSKNMLYLQMNSLKTEDTAIYYCTADVIPAATRGVYYYYYYMDVWGEGTTVAVSS
VL: QSALTQPASVSGSPGQSITISCTGTSSDVGGYNYVSWYQQHPGKAPKLMIYDVSKRPSGLSNRFSGSKSGNTASLTISGLQAEDEADYYCCSYARSSTVVFGGGTKVTVL
B7: 9.1.c1426 (antibody, V domains shown)
VH: QVQLQESGPGLVKPSQTLSLTCTVSGGSISSGDYYWSWIRQPPGKGLEWIGYIYYSGSTYYNPSLKSRVTISVDTSKNQFSLKLSSVTAADTAVYYCARGYSSGWYLAYFQHWGQGTLVTVSS
VL: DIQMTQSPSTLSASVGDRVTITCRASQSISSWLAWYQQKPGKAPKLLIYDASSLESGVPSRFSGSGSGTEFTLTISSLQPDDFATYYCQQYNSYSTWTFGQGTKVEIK
B8: 5.6.c3010 (antibody, V domains shown)
VH: EVQLVESGGGLVQPGGSLRLSCAASGLTVSSNYMNWVRQAPGKGLEWVSVIYSGGRTYYADSVKGRFTISRDISKNTVYLEMNSLRADDTAVYYCARIYFFYNGMDVWGQGTTVTVSP
VL: EILLTQSPGTLSLSPGERATLSCRASQSVSSNYLAWFQQKPGQAPRLLIYGASSRATGIPDRFSGSGSGTDFTLTISRLEPEDFALYYCQQYGSSPPWTFGQGTKVEMK
B9: 5.6.c4172 (antibody, V domains shown)
VH: QVQLQESGPGLVKPSGTLSLTCAVSGGSISSHYWWSWVRQSPGKGLEWLGEIYQIGSTNYNPSLKSRVSMSVDESKNQFSLSLTSVTAADTAVYYCARDQGHWNPGKGAFDIWGQGALVTVSS
VL: QSVLTQPPSVSAAPGQRVTISCSGSNSNIGKNFVSWYQQFPGTAPKLLIYDNDKRPSGIPDRFSGSKSGTSATLGITGLQTGDEADYFCATWDTTLSAWVFGGGTKVTVL
B10: 5.6.c3242 (antibody, V domains shown)
VH: QVQLQESGPGLVKPSATLSLTCTVSGGSISSDHWSWIRQPPGKGLEWIGHVIYSGSTNYIPSLKSRVTISIDTSKNQFSLKLRSVTAADTAVYYCARGGGWYDNWFDPWGQGTLVTVSS
VL: QSALTQPASVSGSPGQSIIISCTGTSNDVGSYNLVSWYQQHPGKAPKLMIYEGNKRPSGVSNRFSGSKSGNAASLKISGLQSEDEAEYYCCSYAGSGTWVFGGGTKLTVL
B11: 15.0.c792 (antibody, V domains shown)
VH: EVQLVESGGGLVQPGGSLRLSCAASGFTFSSYSMNWVRQAPGKGLEWVSYISSSSSTIYYADSVKGRFTISRDNAKNSLYLQMNSLRAEDTAVYYCARESPTYYDFWSGYSDYWGQGTLVTVSS
VL: NFMLTQPHSVSESPGKTVTISCTRSSGSIASNYVQWYQQRPGSSPTTVIYEDNQRPSGVPDRFSGSIDSSSNSASLTISGLKTEDEADYYCQSYDSSNRVFGGGTKLTVL
B12: 5.6.c3387 (antibody, V domains shown)
VH: QLQLQESGPRLVKPSETLSLTCTVSGGSINRNSYYWGWIRQPPGKGLEWIGTIYYSGSPYYNPSLKSRVTISVDTSKNQFSLKLDSVTAADTALYFCASLWGWNDVGWFDSWGQGTLVTVSS
VL: EIVLTQSPGTLSLSPGERATLSCRASQSVSSGYLAWYQQKPGQAPRLLIYGASIRAAGIPDRFSGSGSGTDFTLTISRLEPEDFAVYFCQQYGTSPLTFGPGTTVDIK
B13: 15.0.c800 (antibody, V domains shown)
VH: EDQLLESGGGLVQPGGSLRLSCAVSGFTFSGYDLSWVRQAPGKGLEWVSIFSGSGGRKYYADSVKGRFTLSIDNSKNTLYLQMNSLRAEDTAVYYCAGDSSGYNNERMYYTYYMDVWGKGTTVTVSS
VL: DIQMTQSPSSVSASVGDRVIITCRASQGISSWLAWYQQKPGKAPKLLIYAASSLQSGVPSRFSGSGSGTDFTLTISSLQPEDFATYYCQQANSFPLSFGGGTKVEIK
B14: 5.6.c2617 (antibody, V domains shown)
VH: EVQLVESGGGLVQPGGSLRLSCVASGFTFSSYEMDWVRQAPGKGLEWVSYIGSSGSTIYYADSVKGRFTISRDNAKNSLYLQMNSLRAEDTAVYYCARDTETTGLYYYGMDVWGQGTTVTVSA
VL: DIQMTQSPSSVSASVGDRVTITCRASQGISRWLAWYQQKPGKAPKLLIYGTSSLQSGVPSRFSGSGSGTDFTLTISSLQPEDFATYYCQQANSFPFTFGPGTRVDIK
B15: 15.0.c830 (antibody, V domains shown)
VH: EEQLLESGGGLVQPGGSLRLSCTVSGFTFSGYDMSWVRQAPGKGLEWVSLLSASGGGKYYADSVRGRFTISRDNSKNTMYLEMNSLRADDTAIYYCATDSSGYNYERLYYTYYMDVWGRGTTVSVSS
VL: DIQMTQSPSSVSASVGDRVTITCRASQGISVWLAWYQQKPGKAPKLLIHAASSLQSGVPSRFSGSGSGTDFSLTISSLQPEDFATYYCQQANSFPLTFGGGTKVEIK
B16: 15.0.c835 (antibody, V domains shown)
VH: not shown
VL: DIQLTQSPSFLSASVGDRVTITCRASQGISSYLAWYQQKPGKAPKLLIYAASTLQSGVPSRFSGSGSGTEFTLTISSLQPEDFATYYCQQLNSYGYTFGQGTKLEIK
B17: 5.6.c3169 (antibody, V domains shown)
VH: QVQLVQSGTEVKKPGASVRVSCKSSGYTFTNYGINWVRQAPGQGLEWLGWISTYNDNINYAQKFQGRVTMTTDTSTSTAYMELRSLRSDDTAIYYCAKDSSAYWDLLFYGMDVWGQGTTVTVSS
VL: DIQLTQSPSFVSASVGDRVTITCRASQGISSSLAWYQQKPGKAPNLLIYAASALQSGVPSRFSGSGSGTDFTLTISSLQPEDFATYFCQQLNSYPYTFGQGTKLEIK
B18: 15.0.c912 (antibody, V domains shown)
VH: QVQLQESGPGLVKPSQTLSLTCTVSGGSISSGGYYWNWVRQHPGKGLEWIGYISYSGSTFYSGSTYYNPSLKSRITISLDTSKNQFSLNLSSVTAADTAVYYCARDRGDPGGYYNYGMDVWGQGTTVTVSS
VL: QSVLTQPPSASGTPGQRVTISCSGSSSNIGSHYVYWYQQLSGTAPKLLIYRNNERPSGVPDRFSGSKSGTSASLAISGLRSEDEADYYCATWDDSQRVFGGGTKLTVL
B19: 9.1.c1410 (antibody, V domains shown)
VH: EVQLVESGGGLVKPGGSLRLSCAASGFTFSSYSMNWVRQAPGKGLEWVSSISSSSSYIYYADSVKGRFTISRDNAKNSLYLQMNSLRAEDTAVYYCARDLSEYQLLLSYFDYWGQGTLVTVSS
VL: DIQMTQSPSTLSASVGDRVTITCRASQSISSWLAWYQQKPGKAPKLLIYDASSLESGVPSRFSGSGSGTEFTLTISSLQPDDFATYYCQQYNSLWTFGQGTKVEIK
B20: 15.0.c865 (antibody, V domains shown)
VH: EVQLVESGGSVVRPGGSLRLSCAASVFTFENYGMSWVRQTPGKGLEWVSSINWNGANTGYADSVKGRFTVSRDNAKNSLYLQMNSLRAEDTALYYCARHRYDSSGQWYFDYWGQGTLVTVSS
VL: SYELTQPPSVSVSPGQTARITCSGDALPKKYAYWYQQKPGQAPVLVIYEDSKRPSGIPERFSGSRSGTMATLTISGAQVADEADYYCYSPDSSGNHRIFGTGTKVTVL
B21: 5.6.c2647 (antibody, V domains shown)
VH: QDQLVQSGAEVKKPGASVKVSCKASGYSFTGHYIHWVRRAPGRGLEWMGWINPDSGGTNYAQKFQGWVSMTRDTSISTAYMELSSLKSDDTAVYYCARGITMICDLWGQGTQVTVSS
VL: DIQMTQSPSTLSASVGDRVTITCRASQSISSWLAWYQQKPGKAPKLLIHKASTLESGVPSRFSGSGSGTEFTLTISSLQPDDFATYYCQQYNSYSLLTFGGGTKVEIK
B22: 15.0.c819 (antibody, V domains shown)
VH: QVQLVESGGGVVQPGRSLRLSCAASGFTFSSYAMHWVRQAPGKGLEWVAVISYDGSNKYYADSVKGRFTISRDNSKNTLYLQMNSLRAEDTAVYYCARDLLWFGELLFREYYMDVWGKGTTVTVSS
VL: not shown
B23: 5.6.c2875 (antibody, V domains shown)
VH: EVQLVESGGGVVQPGGSLRLSCAASGFTLRNFDMHWVRQVTGKGLEWVSGIGTAGDTYYPDSVKGRFTISRENAKNSLYLQMNSLRAEDTAVYYCARARWLQFDNWGQGALVTVSS
VL: EIVLTQSPGTLSLSPGERATLSCKASQRVTSNFLAWYQQTPGQAPRLLIYSASSRATGIPDRFSGSGSGTDFTLTISRLEPEDFAVYYCQQYRSSRYTFGQGTKLEIK

Key:
[1] = biological target: T1, thermolysin-cleaved EBOV GP on …
[2] = biological target: EBOV GP ectodomain residues 1-636 (GPec) (Zaire ebolavirus, strain  …, UniProt Q05320)

Row | Binder | binding result [1] | binding result [2]
1 | B1 | binds | –
2 | B2 | – | binds
3 | B3 | binds | –
4 | B4 | binds | –
5 | B5 | binds | –
6 | B6 | binds | –
7 | B7 | binds | –
8 | B8 | binds | –
9 | B9 | binds | –
10 | B10 | – | binds
11 | B11 | binds | –
12 | B12 | binds | –
13 | B13 | binds | –
14 | B14 | – | binds
15 | B15 | binds | –
16 | B16 | binds | –
17 | B17 | – | binds
18 | B18 | binds | –
19 | B19 | binds | –
20 | B20 | binds | –
21 | B21 | binds | –
22 | B22 | binds | –
23 | B23 | – | binds
